The source of these data is patent US20250333507A1 (SHANGHAI CELGEN BIO PHARMACEUTICAL, published 2025).

Test [1] concerns the target full-length human TIGIT on the cell membrane (human) (UniProt Q495A1). In words: cell-based or functional assay.
Test [2] deals with T1, mouse IL2R on CTLL-2 cells (mouse, UniProt P01590 22-268).
T1 sequence (looked up): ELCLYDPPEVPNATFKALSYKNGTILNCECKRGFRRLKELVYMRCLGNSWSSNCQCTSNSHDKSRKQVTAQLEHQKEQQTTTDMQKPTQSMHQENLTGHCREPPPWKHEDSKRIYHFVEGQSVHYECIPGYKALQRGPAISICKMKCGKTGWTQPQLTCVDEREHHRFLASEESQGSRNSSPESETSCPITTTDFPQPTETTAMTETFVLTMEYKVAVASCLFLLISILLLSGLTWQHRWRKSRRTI
Description: cell-based or functional assay.

The target of test [3] is T2, recombinant IL2Rβ subunit (Sinobio) (UniProt P14784 27-239).
T2 construct: also called IL2β subunit
T2 sequence (looked up): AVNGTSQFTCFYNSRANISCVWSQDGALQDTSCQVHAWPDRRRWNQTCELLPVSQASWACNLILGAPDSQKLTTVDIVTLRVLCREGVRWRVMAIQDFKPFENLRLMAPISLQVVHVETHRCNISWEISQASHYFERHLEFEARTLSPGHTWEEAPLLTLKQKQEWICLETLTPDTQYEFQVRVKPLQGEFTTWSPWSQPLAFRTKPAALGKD
In words: BLI, recombinant IL2Rβ subunit.

Test [4] has as its target T3, IL2Rαγ (dimer) on 293F cells (human, UniProt P01589 22-272; P31785 23-369).
T3 construct: whole, on cells
T3 sequence (looked up) 1: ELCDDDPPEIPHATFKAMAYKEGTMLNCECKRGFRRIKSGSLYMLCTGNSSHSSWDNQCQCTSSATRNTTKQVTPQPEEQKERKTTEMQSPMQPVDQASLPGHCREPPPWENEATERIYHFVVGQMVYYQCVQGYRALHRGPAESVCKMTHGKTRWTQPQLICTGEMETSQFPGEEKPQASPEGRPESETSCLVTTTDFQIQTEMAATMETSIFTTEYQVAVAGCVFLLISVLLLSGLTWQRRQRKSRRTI
T3 sequence (looked up) 2: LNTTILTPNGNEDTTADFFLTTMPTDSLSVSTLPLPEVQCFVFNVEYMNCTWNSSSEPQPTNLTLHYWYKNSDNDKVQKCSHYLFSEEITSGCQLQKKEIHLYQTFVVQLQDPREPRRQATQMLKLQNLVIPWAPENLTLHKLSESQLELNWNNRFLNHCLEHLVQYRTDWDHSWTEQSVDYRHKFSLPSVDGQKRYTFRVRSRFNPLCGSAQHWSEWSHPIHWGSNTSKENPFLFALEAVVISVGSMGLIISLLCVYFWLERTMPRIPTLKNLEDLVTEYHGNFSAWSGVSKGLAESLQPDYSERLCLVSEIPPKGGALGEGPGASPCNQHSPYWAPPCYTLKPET
In words: flow cytometry on 293F cells expressing IL2Rαγ. An excerpt: First, human IL2Rα, IL2Rβ, and IL2Rγ expression plasmids (Sinobio) were co-transfected into 293F cells to transiently express the following IL2R complexes: IL2Rαβγ (trimer), IL2Rαγ (dimer), and IL2Rβγ (dimer). The expression of the respective IL2R subunits on the cell membrane was detected using antibodies against IL2Rα, IL2Rβ, and IL2Rγ.
Then, the binding activity of KD5201F, KD5201E, and control protein-1 to the 293F cells expressing the two types of IL2R complexes (αγ and βγ) was detected using flow cytometry.
(In flow cytometry, cells or beads pass a laser one at a time.)

Test [5] addresses T4, mouse TIGIT (mouse, UniProt P86176 29-148, limits assumed).
T4 sequence (looked up): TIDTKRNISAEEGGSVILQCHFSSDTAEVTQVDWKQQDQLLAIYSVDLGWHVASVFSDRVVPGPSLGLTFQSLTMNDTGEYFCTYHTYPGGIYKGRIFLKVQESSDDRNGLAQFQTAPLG
In words: not described.

Test [6] deals with T5, recombinant human TIGIT (Human TIGIT His, Sino Biological, 10917-H08H) (human, UniProt Q495A1 22-138).
T5 construct: range 1-138; Bought reagent; also called recombinant human TIGIT antigen; recombinant human TIGITE-HIS; not shown: C-terminal histidine tag
T5 sequence (looked up): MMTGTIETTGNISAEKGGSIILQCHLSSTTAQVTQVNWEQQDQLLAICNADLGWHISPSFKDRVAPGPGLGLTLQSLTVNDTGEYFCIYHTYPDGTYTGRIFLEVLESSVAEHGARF
Description: ELISA, recombinant human TIGIT-His coated. Here is the method: The activity of TIGIT antibody-IL2 fusion protein binding TIGIT of the present disclosure in vitro was detected using ELISA. The ELIS was conducted as follows: coated with 50 μl of NaHCO₃(pH9.6) buffer containing […] recombinant human TIGITE-HIS overnight at 4° C.; on the next day, washed twice with PBS, followed by blocking with 3% BSA, 100 μL per well; incubated at 37° C. for 1.5h, and washed with PBST for 4 times. TIGIT antibody-IL2 fusion protein was diluted in a gradient with a binding solution (TBST containing 1% BSA), and added into the blocked and washed ELISA plate (50 μl per well), and incubated at 37° C. for 2 h. After washing with PBST for 4 times, a certain proportion of diluted anti-HFC (Jackson Immuno Research) labeled with alkaline phosphatase was added to each well and incubated at 37° C. for 1.5h. Finally, after washing with PBST for 4 times, PNPP color developing solution was added and incubated at 37° C. for 10-15 min, followed by reading on a microplate reader (wavelengths 405 nm and 490 nm). Human TIGIT monoclonal antibody P03479 was used as positive control.
Background: An ELISA detects its analyte on a solid surface through an enzyme-linked reagent.

Test [7] deals with T6, full-length human TIGIT on the cell membrane (human, UniProt Q495A1 22-244).
T6 construct: whole, on cells; the cell is named under assay or readout; also called CHO-K-TIGIT; CHO-TIGIT
T6 sequence (looked up): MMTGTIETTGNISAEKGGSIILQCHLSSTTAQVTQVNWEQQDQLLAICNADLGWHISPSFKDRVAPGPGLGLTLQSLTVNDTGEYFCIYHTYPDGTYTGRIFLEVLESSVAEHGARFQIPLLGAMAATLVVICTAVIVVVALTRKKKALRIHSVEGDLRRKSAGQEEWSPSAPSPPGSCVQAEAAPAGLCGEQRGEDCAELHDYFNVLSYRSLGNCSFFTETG
In words: flow cytometry on CHO-K cells expressing human TIGIT. Here is the method:
The flow cytometry method to study the binding of TIGIT antibodies to TIGIT protein on the cell membrane is briefly described as follows: Firstly, FACS buffer was prepared, which was a 1×PBS solution with 0.5% BSA. The required number of CHO-K-TIGIT cells, approximately 1×10⁵ to 5×10⁵ cells per sample, was taken and suspended in FACS buffer. […] The cells were incubated in a refrigerator at 4° C. for 30 minutes, washed once with FACS buffer, and then resuspended in FITC-conjugated anti-human IgG (Abcam: 6854) diluted in FACS buffer. The cells were incubated again in a refrigerator at 4° C. for 30 minutes. Finally, after washing the cells with FACS buffer, the cells were resuspended in 200 μL of FACS buffer for analysis, and subjected to detection.

Test [8] concerns the target T6, full-length human TIGIT on the cell …. Description: flow cytometry on Jurkat cells expressing human TIGIT. Here is the method: The binding activity of the anti-TIGIT antibody-IL2 fusion proteins to TIGIT on the cell membrane was tested using flow cytometry. A Jurkat cell line stably expressing human TIGIT was first established. The full-length human TIGIT gene (Sinobio) was amplified by PCR and cloned into the mammalian cell expression vector pcDNA3.1 (Invitrogen), using Not I and Xba I as cloning enzymes. The TIGIT expression plasmid was transfected into Jurkat cells to construct a stable Jurkat cell line expressing TIGIT (TIGIT-Jurkat).
The flow cytometry study method for the binding of TIGIT antibody-IL2 fusion proteins to cell membrane-bound TIGIT is summarized as follows: FACS buffer (1×PBS+0.5% BSA solution) was prepared. The required number of TIGIT-Jurkat cells, about 1×10⁵ to 5×10⁵ cells per sample, was taken and incubated with TIGIT antibody-IL2 fusion protein diluted to a certain ratio in FACS buffer, approximately 100 μL, at 4° C. for 30 minutes. After washing the cells once with FACS buffer, they were resuspended in FITC-conjugated anti-human IgG (Abcam: 6854) diluted in FACS buffer and incubated at 4° C. for 30 minutes. Finally, after washing the cells with FACS buffer, they were resuspended in 200 μL of FACS buffer for analysis. The parent TIGIT antibody P03479 was used as a control.
The results were consistent with those obtained by binding recombinant TIGIT in vitro (Example 6).

In test [9] the target is T5, recombinant human TIGIT (Human TIGIT …). In words: competition ELISA, TIGIT-His coated, competitor CD155-mFC. Here is the method:
To determine whether human-mouse chimeric and humanized TIGIT monoclonal antibodies can inhibit the binding between CD155 and TIGIT, an in vitro ELISA assay was conducted. Tiragolumab was used as a positive control. […] The next day, after washing twice with PBS, the wells were blocked with 3% BSA, 100 μL per well, and incubated at 37° C. for 1.5 hours, followed by washing 4 times with PBST. Gradient diluted TIGIT monoclonal antibodies and CD155-mFC (6 μg/mL) (Human CD155 (Fc Tag): Sino Biological, 10109-H02H) were mixed in equal volumes and added to the blocked and washed microplate and incubated at 37° C. for 2 hours, followed by 4 washes with PBST. Subsequently, a diluted secondary antibody HRP-conjugated anti-mFC (Jackson Immuno Research, 115-035-164) was added and incubated at 37° C. for 1.5 hours. After washing 4 times with PBST, TMB coloring solution was added, and the plate was incubated at 37° C. for 10-15 minutes before reading on a microplate reader (wavelengths 450 nm and 655 nm).
As shown, all TIGIT monoclonal antibodies could specifically block the binding between TIGIT and CD155.

As a reminder, the Kd is the free concentration of one partner at which half of the binding sites on the other are occupied at equilibrium, for simple one-to-one binding. One may read the EC50 as the midpoint of the concentration-response curve. Broadly, the IC50 is the concentration needed to halve the response being measured.

In turn, Tiragolumab (antibody) had an IFNγ release from PHA-activated PBMCs, increase over the blank in test [1] of 16%.

B1: KD5201E, HC(DANG)-IL2mut-1/LC(ART-Ig) anti-TIGIT antibody-IL2 fusion protein (other)
heavy 1: EVQVVESGGGLVKPGGSLRLSCAASGFTFSTYAMSWVRQAPGKGLEWVAEISSGGSHTFYADTVKGRFTISRDNAKNTLYLQMNSLRAEDTAVYYCARKTLDYYALDYWGQGTTVTVSSASTKGPSVFPLAPSSKSTSGGTAALGCLVKDYFPEPVTVSWNSGALTSGVHTFPAVLQSSGLYSLSSVVTVPSSSLGTQTYICNVNHKPSNTKVDKKVEPKSCDKTHTCPPCPAPELLGGPSVFLFPPKPKDTLMISRTPEVTCVVVAVSHEDPEVKFNWYVDGVEVHNAKTKPREEQYGSTYRVVSVLTVLHQDWLNGKEYKCKVSNKALPAPIEKTISKAKGQPREPQVYTLPPSRKEMTKNQVSLTCLVKGFYPSDIAVEWESNGQPENNYKTTPPVLDSDGSFFLYSKLTVDKSRWQQGNVFSCSVMHEALHNRYTQKSLSLSPGGGGGSGGGGSGGGGSAPTSSSTKKTQLQLEHLLLDLQMILNGINNYKNPKLTRMLTAKFYMPKKATELKHLQCLEEELKPLEEVLNLAQSKNFHFDPRDVVSNINVFVLELKGSETTFMCEYADETATIVEFLNRWITFCQSIISTLT
heavy 2: EVQVVESGGGLVKPGGSLRLSCAASGFTFSTYAMSWVRQAPGKGLEWVAEISSGGSHTFYADTVKGRFTISRDNAKNTLYLQMNSLRAEDTAVYYCARKTLDYYALDYWGQGTTVTVSSASTKGPSVFPLAPSSKSTSGGTAALGCLVKDYFPEPVTVSWNSGALTSGVHTFPAVLQSSGLYSLSSVVTVPSSSLGTQTYICNVNHKPSNTKVDKKVEPKSCDKTHTCPPCPAPELLGGPSVFLFPPKPKDTLMISRTPEVTCVVVAVSHEDPEVKFNWYVDGVEVHNAKTKPREEQYGSTYRVVSVLTVLHQDWLNGKEYKCKVSNKALPAPIEKTISKAKGQPREPQVYTLPPSREEMTKNQVSLTCLVKGFYPSDIAVEWESNGQPENNYKTTPPVLDSDGSFFLYSKLTVDKSRWQQGNVFSCSVMHEALHNHYTQESLSLSPG
light: DVQITQSPSYLSASVGDRVTINCRASKSISKYLAWYQQKPGKAPKLLIYSGSRLQSGIPSRFSGSGYGTDFTLTISSLQPEDFATYYCQQHNEYPWTFGGGTKLEIKRTVAAPSVFIFPPSDEQLKSGTASVVCLLNNFYPREAKVQWKVDNALQSGNSQESVTEQDSKDSTYSLSSTLTLSKADYEKHKVYACEVTHQGLSSPVTKSFNRGEC
notes: IL2mut-1 = F42A/L80F/R81D/L85V/I86V/I92F on the C-terminus of one heavy chain; Fc with D265A/N297G; also called HC1(DANG)-IL2mut/LC1(ART-Ig); HC1-IL2mut/LC1 (ART-Ig)
Regarding B1, the “EC50 of stimulating CTLL-2 cell growth (CCK-8)” value in test [2] was 0.0153 mg/L. For the same molecule, the Kd in test [3] was roughly 8.2 nM. The binding result in test [4] is on record as “binds”.

B2: humanized anti-human TIGIT monoclonal antibody P03479 (7103-07 huVH2VL1) (antibody, V domains shown)
VH: EVQVVESGGGLVKPGGSLRLSCAASGFTFSTYAMSWVRQAPGKGLEWVAEISSGGSHTFYADTVKGRFTISRDNAKNTLYLQMNSLRAEDTAVYYCARKTLDYYALDYWGQGTTVTVSS
VL: DVQITQSPSYLSASVGDRVTINCRASKSISKYLAWYQQKPGKAPKLLIYSGSRLQSGIPSRFSGSGYGTDFTLTISSLQPEDFATYYCQQHNEYPWTFGGGTKLEIK
notes: The constant region is described as IgG1 gamma in the embodiments; also called parent TIGIT antibody P03479
As for B2, the binding result in test [5] was “no binding”. Further, the concentration giving a half-maximal response (EC50) in test [6] amounted to 0.0184 mg/L; in test [7], 0.144 mg/L; in test [8], 0.0315 mg/L. Moreover, the IC50 in test [9] stood at 0.107 mg/L.
